Results from patent publication US20210230273A1 (Alexion, published 2021).

T1: cell surface CD200 (human, UniProt P41217 31-278)
T1 construct: whole, on cells; also called CD200 on CD200 expressing Raji cells; CD200+ Raji cells
T1 sequence (looked up): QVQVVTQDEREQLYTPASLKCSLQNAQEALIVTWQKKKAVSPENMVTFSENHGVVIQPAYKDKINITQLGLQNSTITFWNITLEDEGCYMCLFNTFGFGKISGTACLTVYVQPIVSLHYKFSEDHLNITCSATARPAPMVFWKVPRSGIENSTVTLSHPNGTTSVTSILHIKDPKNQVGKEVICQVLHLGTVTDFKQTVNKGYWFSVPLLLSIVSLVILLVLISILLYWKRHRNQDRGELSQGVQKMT


Target: T1, cell surface CD200
Assay: flow cytometry, inhibition of labelled CD200R-Fc binding to CD200+ Raji cells; mean ± SD
From the text: Next, the abilities of the newly-engineered anti-CD200 antibodies to antagonize CD200R were compared with that of samalizumab using CD200+ Raji cells. […] Binding of labeled CD200R-Fc was detected by flow cytometry.

Row | EC50 | Binder
1 | 0.46 nM | samalizumab (antibody, human IgG2, kappa, V domains shown, Humanized anti-human CD200 mAb with G2/G4 constant region; also called ALXN6000; TPP-309) VH: QVQLQQSGSELKKPGASVKISCKASGYSFTDYIILWVRQNPGKGLEWIGHIDPYYGSSNYNLKFKGRVTITADQSTTTAYMELSSLRSEDTAVYYCGRSKRDYFDYWGQGTTLTVSS VL: DIQMTQSPSSLSASIGDRVTITCKASQDINSYLSWFQQKPGKAPKLLIYRANRLVDGVPSRFSGSGSGTDYTLTISSLQPEDFAVYYCLQYDEFPYTFGGGTKLEIKR

Target: recombinant human CD200 Fc Chimera (human) (UniProt P41217)
Assay: SPR (Biacore), CD200 captured by anti-Fc (human) on CM5, Fab injected

Row | Binder | Kd | koff | kon | fold better affinity than mouse parental c2aB7 (TPP-100 Fab) | fold better affinity than samalizumab (TPP-101 Fab)
2 | TPP-100 (Fab, V domains shown) VH: EVQLQQSGPELVKPGASLKMSCKASGYSFTDYIILWVKQNHGKSLEWIGHIDPYYGSSNYNLKFKGKATLTVDKSSSTAYMQLNSLTSEDSAVYYCGRSKRDYFDYWGQGTTLTVSS VL: DIQMTQSPSSMYASLGERVTITCKASQDINSYLSWFQQKPGKSPKTLIYRANRLVDGVPSRFSGSGSGQDYSLTISSLEYEDMGIYYCLQYDEFPYTFGGGTKLEIK | 0.442 nM | 0.000747 s⁻¹ | 1.69e+06 M⁻¹ s⁻¹ |  | 
3 | TPP-101 (Fab, V domains shown) VH: QVQLQQSGSELKKPGASVKISCKASGYSFTDYIILWVRQNPGKGLEWIGHIDPYYGSSNYNLKFKGRVTITADQSTTTAYMELSSLRSEDTAVYYCGRSKRDYFDYWGQGTTLTVSS VL: DIQMTQSPSSLSASIGDRVTITCKASQDINSYLSWFQQKPGKAPKLLIYRANRLVDGVPSRFSGSGSGTDYTLTISSLQPEDFAVYYCLQYDEFPYTFGGGTKLEIK | 6.01 nM | 0.0175 s⁻¹ | 2.91e+06 M⁻¹ s⁻¹ |  | 
4 | TPP-741 (Fab, V domains shown) VH: QVQLVQSGAEVKKPGASVKVSCKASGYSFTDYIILWVRQAPGQRLEWIGHIDPYYGSSNYNLKFKGRVTITRDTSASTAYMELSSLRSEDTAVYYCARSKRDYFDYWGQGTLVTVSS VL: DIQMTQSPSSLSASVGDRVTITCKASQDINSYLSWFQQKPGKAPKSLIYRANRLVDGVPSRFSGSGSGTDFTLTISSLQPEDFATYYCLQYDEFPYTFGQGTKLEIK | 0.407 nM | 0.000707 s⁻¹ | 1.74e+06 M⁻¹ s⁻¹ |  | 

The remaining lines, values ahead:

Row | Kd | koff | kon | fold better affinity than mouse parental c2aB7 (TPP-100 Fab) | fold better affinity than samalizumab (TPP-101 Fab) | Binder
5 | 0.104 nM | 0.00022 s⁻¹ | 2.11e+06 M⁻¹ s⁻¹ | 3 fold | 45 fold | TPP-751 (Fab, V domains shown) VH: QVQLVQSGAEVKKPGASVKVSCKASGYSFTDYIILWVRQAPGQRLEWMGHIDPYYGSSNYNLKFKGRVTITRDTSASTAYMELSSLRSEDTAVYYCGRSKRDYFDYWGQGTLVTVSS VL: DIQMTQSPSSLSASVGDRVTITCKASQDINSYLSWFQQKPGKAPKSLIYRANRLVDGVPSRFSGSGSGTDFTLTISSLQPEDFATYYCLQYDEFPYTFGQGTKLEIK
6 | 0.132 nM | 0.00024 s⁻¹ | 1.82e+06 M⁻¹ s⁻¹ | 3 fold | 45 fold | TPP-709 (Fab, V domains shown) VH: QVQLVQSGAEVKKPGASVKVSCKASGYSFTDYIILWVRQAPGQRLEWMGHIDPYYGSSNYNLKFKGRVTITRDTSASTAYMELSSLRSEDTAVYYCGRSKRDYFDYWGQGTLVTVSS VL: DIQMTQSPSSLSASVGDRVTITCKASQDINSYLSWFQQKPGKAPKSLIYRANRLVDGVPSRFSGSGSGTDFTLTISSLQPEDFGTYYCLQYDEFPYTFGQGTKLEIK

Target: recombinant human CD200 Fc Chimera (human) (UniProt P41217)
Assay: SPR (Biacore 3000), CD200-Fc captured by anti-human Fc on CM5, Fab injected, 1:1 Langmuir

Row | Binder | Kd | koff | kon
7 | TPP-100 (Fab, V domains shown) VH: EVQLQQSGPELVKPGASLKMSCKASGYSFTDYIILWVKQNHGKSLEWIGHIDPYYGSSNYNLKFKGKATLTVDKSSSTAYMQLNSLTSEDSAVYYCGRSKRDYFDYWGQGTTLTVSS VL: DIQMTQSPSSMYASLGERVTITCKASQDINSYLSWFQQKPGKSPKTLIYRANRLVDGVPSRFSGSGSGQDYSLTISSLEYEDMGIYYCLQYDEFPYTFGGGTKLEIK | 0.488 nM | 0.000739 s⁻¹ | 1.51e+06 M⁻¹ s⁻¹
8 | TPP-101 (Fab, V domains shown) VH: QVQLQQSGSELKKPGASVKISCKASGYSFTDYIILWVRQNPGKGLEWIGHIDPYYGSSNYNLKFKGRVTITADQSTTTAYMELSSLRSEDTAVYYCGRSKRDYFDYWGQGTTLTVSS VL: DIQMTQSPSSLSASIGDRVTITCKASQDINSYLSWFQQKPGKAPKLLIYRANRLVDGVPSRFSGSGSGTDYTLTISSLQPEDFAVYYCLQYDEFPYTFGGGTKLEIK | 5.53 nM | 0.0148 s⁻¹ | 2.67e+06 M⁻¹ s⁻¹
9 | TPP-111 (Fab, V domains shown) VH: QVQLVQSGAEVKKPGASVKVSCKASGYSFTDYIILWVRQAPGQGLEWMGHIDPYYGSSNYNLKFKGRVTMTTDTSTSTAYMELRSLRSDDTAVYYCARSKRDYFDYWGQGTLVTVSS VL: DIQMTQSPSSLSASVGDRVTITCKASQDINSYLSWFQQKPGKAPKSLIYRANRLVDGVPSRFSGSGSGTDFTLTISSLQPEDFATYYCLQYDEFPYTFGQGTKLEIK | 5.08 nM | 0.00625 s⁻¹ | 1.23e+06 M⁻¹ s⁻¹
10 | TPP-131 (Fab, V domains shown) VH: QMQLVQSGAEVKKTGSSVKVSCKASGYSFTDYIILWVRQAPGQALEWMGHIDPYYGSSNYNLKFKGRVTITRDRSMSTAYMELSSLRSEDTAMYYCARSKRDYFDYWGQGTLVTVSS VL: DIQMTQSPSSLSASVGDRVTITCKASQDINSYLSWFQQKPGKAPKSLIYRANRLVDGVPSRFSGSGSGTDFTLTISSLQPEDFATYYCLQYDEFPYTFGQGTKLEIK | 0.887 nM | 0.00235 s⁻¹ | 2.65e+06 M⁻¹ s⁻¹
11 | TPP-135 (Fab, V domains shown) VH: QMQLVQSGPEVKKPGTSVKVSCKASGYSFTDYIILWVRQARGQRLEWIGHIDPYYGSSNYNLKFKGRVTITRDMSTSTAYMELSSLRSEDTAVYYCAASKRDYFDYWGQGTLVTVSS VL: DIQMTQSPSSLSASVGDRVTITCKASQDINSYLSWFQQKPGKAPKSLIYRANRLVDGVPSRFSGSGSGTDFTLTISSLQPEDFATYYCLQYDEFPYTFGQGTKLEIK | 15.7 nM | 0.0146 s⁻¹ | 930000 M⁻¹ s⁻¹
12 | TPP-123 (Fab, V domains shown) VH: QVQLVQSGAEVKKPGASVKVSCKASGYSFTDYIILWVRQATGQGLEWMGHIDPYYGSSNYNLKFKGRVTMTRNTSISTAYMELSSLRSEDTAVYYCARSKRDYFDYWGQGTLVTVSS VL: DIQMTQSPSSLSASVGDRVTITCKASQDINSYLSWFQQKPGKAPKSLIYRANRLVDGVPSRFSGSGSGTDFTLTISSLQPEDFATYYCLQYDEFPYTFGQGTKLEIK | 4.36 nM | 0.00487 s⁻¹ | 1.12e+06 M⁻¹ s⁻¹
13 | TPP-139 (Fab, V domains shown) VH: QVQLVQSGSELKKPGASVKVSCKASGYSFTDYIILWVRQAPGQGLEWMGHIDPYYGSSNYNLKFKGRFVFSLDTSVSTAYLQISSLKAEDTAVYYCARSKRDYFDYWGQGTLVTVSS VL: DIQMTQSPSSLSASVGDRVTITCKASQDINSYLSWFQQKPGKAPKSLIYRANRLVDGVPSRFSGSGSGTDFTLTISSLQPEDFATYYCLQYDEFPYTFGQGTKLEIK | 3.71 nM | 0.00368 s⁻¹ | 993000 M⁻¹ s⁻¹
14 | TPP-115 (Fab, V domains shown) VH: QVQLVQSGAEVKKPGASVKVSCKASGYSFTDYIILWVRQAPGQGLEWMGHIDPYYGSSNYNLKFKGRVTMTRDTSISTAYMELSRLRSDDTAVYYCARSKRDYFDYWGQGTLVTVSS VL: DIQMTQSPSSLSASVGDRVTITCKASQDINSYLSWFQQKPGKAPKSLIYRANRLVDGVPSRFSGSGSGTDFTLTISSLQPEDFATYYCLQYDEFPYTFGQGTKLEIK | 4.04 nM | 0.0053 s⁻¹ | 1.31e+06 M⁻¹ s⁻¹

The next lines start with the values.

Row | Kd | koff | kon | Binder
15 | 4.64 nM | 0.0041 s⁻¹ | 885000 M⁻¹ s⁻¹ | TPP-107 (Fab, V domains shown) VH: QVQLVQSGAEVKKPGSSVKVSCKASGYSFTDYIILWVRQAPGQGLEWMGHIDPYYGSSNYNLKFKGRVTITADESTSTAYMELSSLRSEDTAVYYCARSKRDYFDYWGQGTLVTVSS VL: DIQMTQSPSSLSASVGDRVTITCKASQDINSYLSWFQQKPGKAPKSLIYRANRLVDGVPSRFSGSGSGTDFTLTISSLQPEDFATYYCLQYDEFPYTFGQGTKLEIK
16 | 10.1 nM | 0.00704 s⁻¹ | 694000 M⁻¹ s⁻¹ | TPP-103 (Fab, V domains shown) VH: QVQLVQSGAEVKKPGASVKVSCKASGYSFTDYIILWVRQAPGQGLEWMGHIDPYYGSSNYNLKFKGRVTMTRDTSTSTVYMELSSLRSEDTAVYYCARSKRDYFDYWGQGTLVTVSS VL: DIQMTQSPSSLSASVGDRVTITCKASQDINSYLSWFQQKPGKAPKSLIYRANRLVDGVPSRFSGSGSGTDFTLTISSLQPEDFATYYCLQYDEFPYTFGQGTKLEIK
